Measured values taken from patent publication US20160355590A1 (UNIVERSITY OF SOUTHERN CALIFORNIA, published 2016).

B1: Lym-1 monoclonal antibody (antibody, V domains shown)
VH: QLKESGPGLVAPSQSLSITCTISGFSLTSYGVHWVRQPPGKGLEWLVVIWSDGSTTYNSALKSRLSISKDNSKSQVFLKMNSLQTDDTAIYYCASHYGSTLAFASWGHGTLVTVSA
VL: DIQMTQSPASLSASVGETVTIICRASVNIYSYLAWYQQKQGKSPQLLVYNAKILAEGVPSRFSGSGSGTQFSLKINSLQPEDFGSYYCQHHYGTFTFGSGTKLEIK
notes: Mouse (BALB/c) hybridoma monoclonal antibody raised against Raji Burkitt's lymphoma cell nuclei; detected with goat anti-mouse IgG
B2: Lym-2 monoclonal antibody (antibody, V domains shown)
VH: EVQLEESGGGLVQPGGSMKLSCVASGFTFSNYWMNWVRQSPEKGLEWVAEIRFKSHNYATHFAESVKGRFTISRDDSKSSVYLQMNNLRAEDTGIYYCTRRIGNSDYDWWYFDVWGAGTSVTVSS
VL: DIVMTQSHKFMSTSVGDRVSVTCKASQNVGNNVAWYQQKPGQSPKVLIYSASYRYSGVPDRFTGSGSGTDFTLTISNVQSEDLAEYFCQQYNTYPFTFGSGTKLEIK
notes: Mouse (BALB/c) hybridoma monoclonal antibody raised against CLL biopsy cell nuclei; detected with goat anti-mouse IgG

Key:
[1] = target: human HLA-DR (allele not stated), on cells (human); assay: Scatchard plot analysis, normal B cells against tumor cell line
[2] = target: human HLA-DR (allele not stated), on cells (human); assay: Scatchard plot analysis, avidity constant on tonsil lymphocytes
[3] = target: human HLA-DR (allele not stated), on cells (human); assay: Scatchard plot analysis, avidity constant on ARH-77 myeloma cells

Row | fold decrease in binding affinity on normal B cells against tumor cells [1] [fold] | Ka [2] [M⁻¹] | Ka [3] [M⁻¹] | Binder
1 | 4 | 8.8e+07 | – | B1
2 | 2 | 1.23e+08 | 2.33e+08 | B2
